System: MS2 coat protein
Assay: apparent KD of MS2 coat protein; designed switch direction (-1 OFF switch, 1 ON switch): -1; higher = weaker reporter binding
In short: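 Each step of the titration lasted 0.8–1.5 h at the lowest concentration and 10–20 min at the highest. The protein, SNAP-549-labelled MS2 coat protein, went from 0.7 or 1.5 nM doubling to 3 µM over RNA switches transcribed on Illumina chips by stalled E. coli RNA polymerase. Normalised cluster fluorescence was curve-fitted, and the per-design median over clusters is given as apparent KD.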

[1] = Eterna round: R95, input ligand: microRNA oligo, concentration not stated
[2] = input ligand: microRNA oligo, concentration not stated
[3] = Eterna round: R95, input ligand: FMN 200 uM
[4] = Eterna round: R95, input ligand: none

CGGAUGUGAGGAUAUACAUGAGGAUCACCCAUGUGAGCCAGCUAGAUGACUGGCUCGUGUAGAAGGCACGUCUG [Mat - Exclusion 3 - Mod of JL D92] (puzzle: Exclusion 3)
apparent KD of MS2 coat protein [1]: 0.0121 µM

UAUAUAUAGUAAGGAUAUGUAUUAAUUUCAUAAACAGAAGGUACUGACAUGAGGAUCACCCAUGUUUUAGUGUGGGCAUGUAGA [JMF's solution 85] (Eterna round: R96, puzzle: Exclusion NG 1)
apparent KD of MS2 coat protein (input ligand: FMN 200 uM): 0.0882 µM
apparent KD of MS2 coat protein [2]: 0.0542 µM
apparent KD of MS2 coat protein (input ligand: none): 0.0812 µM

AAUACAAGCUAUUGAUCCCACAUGAGGAUCACCCAUGUUCCUGGCCGUGAGACAAGGUUGACAAUAGCUCGUCUUAU [Sensor-V1 #45] (Eterna round: R97, puzzle: Sensor, turn-off variant 1)
apparent KD of MS2 coat protein (input ligand: FMN 200 uM): 0.285 µM
apparent KD of MS2 coat protein (input ligand: none): 0.299 µM

AAUUCACAUGAGGAUCACCCAUGUCAGGAUAUGGUUUCACGUGUUUCUUUGCUUGAGGCCAGAAGGGACAGCUA (puzzle: Exclusion 1)
apparent KD of MS2 coat protein [1]: 0.0672 µM

AACAGUCUAGAGGAUAUGCUGGAUUAAUAUCUGGCAGAAGGCUGGACAUGAGGAUCACCCAUGUAAAUACUACC [Omei Ex6 A1] (Eterna round: R97, puzzle: Exclusion 6)
apparent KD of MS2 coat protein (input ligand: FMN 200 uM): 0.137 µM
apparent KD of MS2 coat protein (input ligand: none): 0.0443 µM

CGCUGGACAGGAUAUGUUCUUGGGCACUUGAGGAUCACCCAAGUCAUCAAAAACUCAGGCACAGAAGGGUUUAUGG [salish99_ex5_r4_019] (Eterna round: R97, puzzle: Exclusion 5)
apparent KD of MS2 coat protein (input ligand: FMN 200 uM): 0.076 µM
apparent KD of MS2 coat protein (input ligand: none): 0.176 µM

UUGGCAGGUUUUUUGCUCGACAUGAGGAUCACCCAUGUUGCGUGGGUUGUGUGUGUGCGGUGUAUAUAUAUGGUCCU [-24.8, -48.1 kcal, A 14%] (Eterna round: R97, puzzle: Sensor, turn-off variant 1)
apparent KD of MS2 coat protein (input ligand: FMN 200 uM): 0.48 µM
apparent KD of MS2 coat protein (input ligand: none): 0.644 µM

UGAAGUAGAGGAUAUACGUGGAAAUAGAUUCAUGUUAAUCUACAUGAGGAUCACCCAUGUAGAAGGCUAUAGAU [JR_Ex2_Sub074] (Eterna round: R97, puzzle: Exclusion 2)
apparent KD of MS2 coat protein (input ligand: FMN 200 uM): 0.0693 µM
apparent KD of MS2 coat protein (input ligand: none): 0.0243 µM

GGCACACAUGAGGAUCACCCAUGUGAGGAUAUUAGGCGAUCGUCGAUAGACGAUAGCCUGAGAAGGCACAUGCC [Mat - Exclusion 1 - Eli Mod - D12] (Eterna round: R97, puzzle: Exclusion 1)
apparent KD of MS2 coat protein (input ligand: FMN 200 uM): 0.0769 µM
apparent KD of MS2 coat protein (input ligand: none): 0.0206 µM

GGGCCGCAAGUAAGGAUAUCCCUUAAAUUGUGAGCGGAGAAGGUACUUGAGGAUCACCCAAGUAUAGAAGAAAA [Arinbear] (Eterna round: R97, puzzle: Brourd's mod of Exclusion 4)
apparent KD of MS2 coat protein (input ligand: FMN 200 uM): 0.0542 µM
apparent KD of MS2 coat protein (input ligand: none): 0.0152 µM

AAGUACCGUCACGAUAGUGAUGGUACAACAGGCAAAUGUACAUGAGGAUCACCCAUGUCCUCUUUUGCUCGUCUUGU [Sensor 3 - 35] (puzzle: Sensor v3, turn-off variant 2)
apparent KD of MS2 coat protein [3]: 0.0942 µM
apparent KD of MS2 coat protein [1]: 0.034 µM
apparent KD of MS2 coat protein [4]: 0.114 µM

CAGACACAUGAGGAUCACCCAUGUGAGGAUAUGCGUACGUUGUCCGUAGGCGACGUGCGCAGAAGGCGCAUAGG [JL-ex1-3.11 Eli mod] (puzzle: Exclusion 1)
apparent KD of MS2 coat protein [3]: 0.0517 µM
apparent KD of MS2 coat protein [1]: 0.0743 µM
apparent KD of MS2 coat protein [4]: 0.0501 µM

UCAAGUAUGUAGGAUAUGAUGUGAUUGUACAUAUCAGAAGGACGUACAUGAGGAUCACCCAUGUAACUUGCAUG [Exclusion 6 - B - 12:b] (puzzle: Exclusion 6)
apparent KD of MS2 coat protein [3]: 0.0431 µM
apparent KD of MS2 coat protein [1]: 0.144 µM
apparent KD of MS2 coat protein [4]: 0.144 µM

UCAUACGGUGAGGAUAUCUCCACUAAAGUGUGAAGAGAAGGCGCUACAUGAGGAUCACCCAUGUUUAUGGGCAG [Ex-6 Malc#14] (puzzle: Exclusion 6)
apparent KD of MS2 coat protein [3]: 0.027 µM
apparent KD of MS2 coat protein [1]: 0.0565 µM
apparent KD of MS2 coat protein [4]: 0.116 µM

CUUUUGUGAGGAUAUCAGUAGUAAAAGAAUAAAAUUACUACUGAGAAGGCACAUGAGGAUCACCCAUGUUCCUC [Mat - Exclusion 4 - Mod of Salish - D61] (puzzle: Exclusion 4)
apparent KD of MS2 coat protein [1]: 0.0367 µM

GGUACUCAAAGAGUACCAAUACGAACAUGAGGAUCACCCAUGUAGGAUAUGCUACUCAAAGAGUAGCAGAAGGACGUGUAUCUU [Far Half Aptamer v3] (Eterna round: R96, puzzle: Exclusion NG 3)
apparent KD of MS2 coat protein (input ligand: FMN 200 uM): 0.0605 µM
apparent KD of MS2 coat protein [2]: 0.0189 µM
apparent KD of MS2 coat protein (input ligand: none): 0.0308 µM

AUAAUGUGAGGAUAUCAGUCGACUAGCUUCGGCUAGUCGACUGAGAAGGCACAUGAGGAUCACCCAUGUGUUUC [E4/15-A1] (Eterna round: R97, puzzle: Exclusion 4)
apparent KD of MS2 coat protein (input ligand: FMN 200 uM): 0.0417 µM
apparent KD of MS2 coat protein (input ligand: none): 0.0187 µM

GGCAGGCUUGAGGAUAUGCAUAGGCUAGGCCUAGCAGAAGGCAAGACAUGAGGAUCACCCAUGUGUUCCUUGUG [jl-ex6-4.35 ViennaUCT mod] (Eterna round: R97, puzzle: Exclusion 6)
apparent KD of MS2 coat protein (input ligand: FMN 200 uM): 0.545 µM
apparent KD of MS2 coat protein (input ligand: none): 0.322 µM

GACAGUUCGGAGGAUAUCCAGAACUAAGAACAAGGAGAAGGCCGAACAUGAGGAUCACCCAUGUGUGUUCCCAU [Isdiorzaar] (puzzle: Exclusion 6)
apparent KD of MS2 coat protein [3]: 0.0194 µM
apparent KD of MS2 coat protein [1]: 0.0307 µM
apparent KD of MS2 coat protein [4]: 0.027 µM

GUCAGCUCGUCAGGAUAUGCACAUGAGGAUCACCCAUGUAAGAUCAAGCUGCUUCGGCAGCAAGUGCAGAAGGGACGAGCUGAU [ENG2/9-B3] (Eterna round: R96, puzzle: Exclusion NG 2)
apparent KD of MS2 coat protein (input ligand: FMN 200 uM): 0.156 µM
apparent KD of MS2 coat protein [2]: 0.214 µM
apparent KD of MS2 coat protein (input ligand: none): 0.294 µM

AGUACUAACACGAAAGUGUUAGUACAAUAAGCUUGUGAAACAUGAGGAUCACCCAUGUCCUCAUAUGCUCGUCUUAU [salish99_TOv2_r3_053] (puzzle: Sensor v3, turn-off variant 2)
apparent KD of MS2 coat protein [3]: 0.471 µM
apparent KD of MS2 coat protein [1]: 0.822 µM
apparent KD of MS2 coat protein [4]: 0.641 µM

UAAAGUAUAUAGGAUAUCUAGCUGGAUACAGCUAGAGAAGGAUGUACAUGAGGAUCACCCAUGUAAAUCAGUGA [Ex6/14-A3] (Eterna round: R97, puzzle: Exclusion 6)
apparent KD of MS2 coat protein (input ligand: FMN 200 uM): 0.0339 µM
apparent KD of MS2 coat protein (input ligand: none): 0.0165 µM

AUAAUGUCAGGAUAUCAGUCGUACAGCUUCGGCUGUACGACUGAGAAGGGACAUGAGGAUCACCCAUGUGGUUA [E4/7-A1] (Eterna round: R97, puzzle: Exclusion 4)
apparent KD of MS2 coat protein (input ligand: FMN 200 uM): 0.0364 µM
apparent KD of MS2 coat protein (input ligand: none): 0.228 µM

AGAUGGCGAGGAUAUACAUGAGGAUCACCCAUGUGAGAGAAUAAAGUGAGGAAGAAAAGUAGAAGGCGCUGUCA [Mat - Exclusion 3 - Mod of Salish D10] (puzzle: Exclusion 3)
apparent KD of MS2 coat protein [1]: 0.0433 µM

AUCGUGCAGCUUUGCUGUACGAGUACAUGAGGAUCACCCAUGUAGGAUAUGGUACGCUUUGCGUGCUAGAAGGAUAUGCGAUUU [EX ENG3 1.47] (Eterna round: R96, puzzle: Exclusion NG 3)
apparent KD of MS2 coat protein (input ligand: FMN 200 uM): 0.0314 µM
apparent KD of MS2 coat protein [2]: 0.0239 µM
apparent KD of MS2 coat protein (input ligand: none): 0.0346 µM

ACUUAUUGAGGAUAUACAUUAAUUUACAUGAGGAUCACCCAUGUUCUUCAAUGUAUAUAUGUAGAAGGCAGAAGAA [JL-ex5-4.30 Malcolm mod] (Eterna round: R97, puzzle: Exclusion 5)
apparent KD of MS2 coat protein (input ligand: FMN 200 uM): 0.0293 µM
apparent KD of MS2 coat protein (input ligand: none): 0.014 µM

AAAUAGUGAGGAUAUUAGUUGUACGUCAAUAGACGUAUAAGUGAGAAGGCACAUGAGGAUCACCCAUGUUCCUG [Omei Ex4 Mod of Mat's R95 mod of Omei v8] (Eterna round: R97, puzzle: Exclusion 4)
apparent KD of MS2 coat protein (input ligand: FMN 200 uM): 0.0344 µM
apparent KD of MS2 coat protein (input ligand: none): 0.0183 µM

AGCUGACGAGGAUAUACAUGAGGAUCACCCAUGUUGGUUCAGCGACGAUAGUCGCAAUGUAGAAGGCGUCAGCU [E3/9-A1] (Eterna round: R97, puzzle: Exclusion 3)
apparent KD of MS2 coat protein (input ligand: FMN 200 uM): 0.0774 µM
apparent KD of MS2 coat protein (input ligand: none): 0.496 µM

CAGUUCUGACGGAGAUCCAACAUGAGGAUCACCCAUGUCUCAAAAGCUUUUUGCUCGUCUUAUCCUCCUCAGGACUC [Mat - Sensor, turn-off var - Eli Mod - D58] (Eterna round: R97, puzzle: Sensor, turn-off variant 1)
apparent KD of MS2 coat protein (input ligand: FMN 200 uM): 0.0164 µM
apparent KD of MS2 coat protein (input ligand: none): 0.0164 µM

GAUCCACAUGAGGAUCACCCAUGUGAGGAUAUGAUACUAUGUACUUCGGUACAUAGUAUCAGAAGGCACAGGUC [Ex1-3: 56] (puzzle: Exclusion 1)
apparent KD of MS2 coat protein [1]: 0.0506 µM

AACCAGCGAGGAUAUGCUUGAGCUUGUUCUGGUCAGAAUCGACUUGAGGAUCACCCAAGUAGAAGGUGCUGACG [EX2 #60] (Eterna round: R97, puzzle: Exclusion 2)
apparent KD of MS2 coat protein (input ligand: FMN 200 uM): 0.0187 µM
apparent KD of MS2 coat protein (input ligand: none): 0.0169 µM

CCGGUUGGCGCAGGAUAUACAUGAGGAUCACCCAUGUUCAUGAGGAUCGCCCAUGAGUUUUUGUUGUAGAAGGGUGGCCCGGCC (Eterna round: R96, puzzle: Exclusion NG 2)
apparent KD of MS2 coat protein (input ligand: FMN 200 uM): 0.0924 µM
apparent KD of MS2 coat protein [2]: 0.07 µM
apparent KD of MS2 coat protein (input ligand: none): 0.084 µM

GUGCAGCGAGGAUAUACAGACGGGUCCAGUACGUGUCUUGGACUUGAGGAUCACCCAAGUAGAAGGCGUCUCAG [salish99_ex2_r4_609] (Eterna round: R97, puzzle: Exclusion 2)
apparent KD of MS2 coat protein (input ligand: FMN 200 uM): 0.0354 µM
apparent KD of MS2 coat protein (input ligand: none): 0.0368 µM

AAGAAGCGAGGAUAUACAGGCGGCGACAUGAGGAUCACCCAUGUGGUGGCCCACGCCGUGGUAGAAGGCGUUAAAG [Ordiceinri] (Eterna round: R97, puzzle: Exclusion 5)
apparent KD of MS2 coat protein (input ligand: FMN 200 uM): 0.228 µM
apparent KD of MS2 coat protein (input ligand: none): 0.245 µM

UAGUGAGCGUGAGGAAUAUACAUGAGGAUCACCCAUGUUUGCUAAUAUAUUGCUCGUCUUAUAACAACAAUUAACUG [Mod-hoo-honey#abc] (Eterna round: R97, puzzle: Sensor, turn-off variant 1)
apparent KD of MS2 coat protein (input ligand: FMN 200 uM): 0.0275 µM
apparent KD of MS2 coat protein (input ligand: none): 0.0209 µM

Source: the supplement of paper PMC9170038
